Source: patent publication US20200397860A1, “SLIT AND BONE GROWTH MODULATION” (Cornell University, priority 2018, published 2020)
Entries after “also recorded” stand apart in the source; their conditions may differ.

Key:
[1] = tested on: bone marrow endothelial cells; experiment: Immunoblot of YAP, AKT and ERK phosphorylation after SLIT3 treatment; assay type: cell-based, mouse
Method: Western blot analysis was performed according to a previously described standard protocol. (Greenblatt et al. 2016) Primary antibodies were specific for SLIT3 (1:500; R&D Systems, AF3629), ROBO1 (1:500; Abeam, ab7279), ROBO2 (1:1000; Abcam, ab75014), YAP (1:1,000; Cell Signaling, 4912), p-YAP (1:1,000; Cell signaling, 4911), AKT (1:1,000; Cell Signaling, 4691), p-AKT (1:1,000; Cell Signaling, 4060), ERK (1:1,000; Cell Signaling, 9102), p-ERK (1:1,000; Cell Signaling, 9101) and beta-actin (1:5,000, sc-47778, Santa Cruz) or Hsp90 (1:1000; sc-13119, Santa Cruz). Secondary anti-mouse/rabbit HRP-conjugated antibodies were subsequently applied.

[2] = tested on: bone marrow-derived endothelial cells; experiment: Flow cytometry of CD31hiEMCNhi endothelial cells in EPOC cultures; assay type: cell-based, mouse; conditions: cultures of EPOCs
Method: Femur and tibia were dissected from mutant mice and control groups after removing surrounding connective tissues. The metaphysis region and diaphysis regions of bone was crushed in Hanks Balanced Salt Solution (Life Technologies) containing 10 mM HOPES (pH 7.2) (CellGro) and enzymatically digested with 2.5 mg/mL Collagenase A (Roche) and 1 unit/mL Dispase II (Roche) for 15 minutes at 37° C. under gentle agitation. The resulting cell suspensions were filtered (40 μm), washed using PBS (pH 7.2) containing 0.5% BSA (Fraction V) and 2 mM EDTA. […] After washing, cells were resuspended in PBS (pH 7.2) with 2 mM EDTA and 1 μg/mL 4-6,Diamidino-2-Phenylindole (DAPI) (live/dead exclusion) for analysis on an LSRII flow cytometer system (BD Biosciences) cytometer and analyzed using FlowJo software (TreeStar). […]
Mouse bone marrow derived late-stage endothelial progenitor outgrowth cells (EPOCs) were obtained from BioChain (7030031) and cultured in growth medium (BioChain Z7030035) as described previously (Xie et al. 2014). […] The cell numbers were quantified by counting a centered microscope field per each filter (5 wells for each condition). […] The width of the wound area was quantitatively evaluated using ImageJ (see website at rsb.info.uih.gov/ij/download.html). […]

[3] = tested on: non-skeletal vasculature; conditions: mouse, in vivo, iv
[4] = tested on: murine ovariectomy (OVX) model of postmenopausal osteoporosis; experiment: Ovariectomy (OVX) induced bone loss, therapeutic model after osteopenia onset; assay type: in vivo, mouse
[5] = treatment initiated eight weeks after OVX

B1: SLIT3: SLIT3 recombinant protein (R&D); secreted ligand of ROBO receptors (protein, UniProt O75094 34-1523, looked up)
Slit homolog 3 protein: CPTKCTCSAASVDCHGLGLRAVPRGIPRNAERLDLDRNNITRITKMDFAGLKNLRVLHLEDNQVSVIERGAFQDLKQLERLRLNKNKLQVLPELLFQSTPKLTRLDLSENQIQGIPRKAFRGITDVKNLQLDNNHISCIEDGAFRALRDLEILTLNNNNISRILVTSFNHMPKIRTLRLHSNHLYCDCHLAWLSDWLRQRRTVGQFTLCMAPVHLRGFNVADVQKKEYVCPAPHSEPPSCNANSISCPSPCTCSNNIVDCRGKGLMEIPANLPEGIVEIRLEQNSIKAIPAGAFTQYKKLKRIDISKNQISDIAPDAFQGLKSLTSLVLYGNKITEIVKGLFDGLVSLQLLLLNANKINCLRVNTFQDLQNLNLLSLYDNKLQTISKGLFAPLQSIQTLHLAQNPFVCDCHLKWLADYLQDNPIETSGARCSSPRRLANKRISQIKSKKFRCSGSEDYRSRFSSECFMDLVCPEKCRCEGTIVDCSNQKLVRIPSHLPEYVTDLRLNDNEVSVLEATGIFKKLPNLRKINLSNNKIKEVREGAFDGAASVQELMLTGNQLETVHGRVFRGLSGLKTLMLRSNLIGCVSNDTFAGLSSVRLLSLYDNRITTITPGAFTTLVSLSTINLLSNPFNCNCHLAWLGKWLRKRRIVSGNPRCQKPFFLKEIPIQDVAIQDFTCDGNEESSCQLSPRCPEQCTCMETVVRCSNKGLRALPRGMPKDVTELYLEGNHLTAVPRELSALRHLTLIDLSNNSISMLTNYTFSNMSHLSTLILSYNRLRCIPVHAFNGLRSLRVLTLHGNDISSVPEGSFNDLTSLSHLALGTNPLHCDCSLRWLSEWVKAGYKEPGIARCSSPEPMADRLLLTTPTHRFQCKGPVDINIVAKCNACLSSPCKNNGTCTQDPVELYRCACPYSYKGKDCTVPINTCIQNPCQHGGTCHLSDSHKDGFSCSCPLGFEGQRCEINPDDCEDNDCENNATCVDGINNYVCICPPNYTGELCDEVIDHCVPELNLCQHEAKCIPLDKGFSCECVPGYSGKLCETDNDDCVAHKCRHGAQCVDTINGYTCTCPQGFSGPFCEHPPPMVLLQTSPCDQYECQNGAQCIVVQQEPTCRCPPGFAGPRCEKLITVNFVGKDSYVELASAKVRPQANISLQVATDKDNGILLYKGDNDPLALELYQGHVRLVYDSLSSPPTTVYSVETVNDGQFHSVELVTLNQTLNLVVDKGTPKSLGKLQKQPAVGINSPLYLGGIPTSTGLSALRQGTDRPLGGFHGCIHEVRINNELQDFKALPPQSLGVSPGCKSCTVCKHGLCRSVEKDSVVCECRPGWTGPLCDQEARDPCLGHRCHHGKCVATGTSYMCKCAEGYGGDLCDNKNDSANACSAFKCHHGQCHISDQGEPYCLCQPGFSGEHCQQENPCLGQVVREVIRRQKGYASCATASKVPIMECRGGCGPQCCQPTRSKRRKYVFQCTDGSSFVEEVERHLECGCLACS
phosphorylation of YAP in response to ligand after Robo1 knockdown ([1]; EPOCs transduced with Robo1 shRNA): impaired their response | signaling pathways downstream of SLIT3 (YAP, AKT, ERK phosphorylation) ([1]; mouse EPOCs after serum starvation): induces activation of Hippo and ERK MAPK pathway signaling | acquisition of CD31hiEMCNhi surface immunophenotype in culture [2]: enhanced the acquisition; also recorded: induces production | brain ultrastructure [3]: no changes | bone loss after onset of OVX-induced osteopenia ([4]; IV twice weekly initiated eight weeks after OVX): significantly reversed bone loss; also recorded: therapeutic effects | cortical thickness [4, 5]: increased | trabecular BV/TV [4, 5]: increased | CD31hiEMCNhi endothelial cells ([4]; treatment initiated eight weeks after OVX, femur): significantly increased
